What all share (test): cryo-EM structure; polar flagellar motor-hook complex purified as a whole from V. alginolyticus KK148 ΔflgL; local refinements of the LPHT ring, hook, rod, export apparatus and MS ring; LPHT ring particles also obtained by disassembling the complex at reduced salt
For data set [1], the target named is FlgH (Vibrio alginolyticus (endogenous in strain KK148 ΔflgL)).
The target of data set [2] is FlgT (Vibrio alginolyticus (endogenous in strain KK148 ΔflgL)).
Data set [3] has as its target FlgI (Vibrio alginolyticus (endogenous in strain KK148 ΔflgL)).
Data set [4] concerns the molecule itself.

Broadly, the stoichiometry N is a count of units in the complex or per binding partner.

With FlgH (natural protein), the stoichiometry N in data set [1] was found to be 26.
Turning to FlgT (natural protein), the stoichiometry N in data set [2] was 26.
On to FlgI (natural protein), for which the stoichiometry N in data set [3] was found to be 26.

B1: FliF (natural protein, UniProt Q75N27 1-580, looked up)
chain: MADKSTDLTVTEGGSDGALVASSDVDVESQNPDLEERSASKFDMAVGDLDLLRQVVLVLSISICVALIVMLFFWVKEPEMRPLGAYETEELIPVLDYLDQQKINYKLDGNTISVESSEYNSIKLGMVRSGVNQATEAGDDILLQDMGFGVSQRLEQERLKLSRERQLAQAIEEMKQVRKARVLLALPKHSVFVRHNQEASASVFLTLSTGTNLKQQEVDSIVDMVASAVPGMKTSRITVTDQHGRLLSSGSQDPASAARRKEQELERSQEQALREKIDSVLLPILGYGNYTAQVDIQMDFSAVEQTRKRFDPNTPATRSEYALEDYNNGNMVAGIPGALSNQPPADASIPQDVAQMKDGSVMGQGSVRKESTRNFELDTTISHERKQTGTVARQTVSVAIKDRRQVNPDTGEVTYTPMSESEINAIRQVLIGTVGFDQGRGDLLNVLSVKFAEPEAEQLEEPPIWEHPNFSDWVRWFASALVIIVVVLVLVRPAMKKLLNPTSDDEDEMYGPDGLPIGADGETSLIGSDIESSELFEFGSSIDLPNLHKDEDVLKAVRALVANEPELAAQVVKNWMNDNG
notes: FliF, MS ring subunit of the polar flagellar motor, Vibrio alginolyticus; domains RBM2, RBM3, β-collar; extended peptide loops LA, LB, LC; 34 subunits form the MS ring; 23 RBM2 domains seen in the RBM2 subring; also called MS ring protein; FliF peptide loops LA, LB, LC; source: endogenous, purified within the polar flagellar motor-hook complex from V. alginolyticus KK148 ΔflgL
For the molecule B1, in data set [4], the “stoichiometry N” value worked out at 34.

(Values after publication PMC13626733, “Molecular basis of high-torque transmission of the Vibrio polar flagellar motor” (Protein & Cell, 2026).)
